Measurements as given in the DeepSol protein solubility set.

test: soluble on expression in E. coli; label from the status in PepcDB or PDB records

Sequence | soluble on expression in E. coli
MGSDKIHHHHHHMSEKSASNNKAEFKRQSSPFREIISADHPIYKPAKGRYWLYVALPCPWAQRTLITRALKGLAPIIGCSVAHWHLDDKGWRFLEEGDGKTNERHWFDIAGGISSVNLNTSTPVANIPNNAHRLLVDGTDEPHYGYKRLSDFYFKTKPDYKGRFTVPVLWDLETCTIVNNESSDIIGIMNSAAFDEFVGEEYRQVRLVPRSLEAQITEFNSWVYDKINNGVYKAGFAECAEVYEREVTSLFQYLDKLENLLDKKYTDLEAEYGKNNKDKILDRYFAIGDTLTEADVRLYPTIVRFDVVYHQHFKCNLATIRDDYSRIHTWLKNIYWRHEAFQRTTDFTHIKLGYTRSQPRVNPIGITPLGPKPDIRPP | not soluble
MGSDKIHHHHHHMRSSSKCSSVRFQFFVVELFMTTTQSAGEITGNVLFYNAPEPLNREQHAKLALVHKDKPYAFAAAGTAVPLTVSEFAPAALTFPVIFAGDDRVPLAVMGLNQQENLFIGADGSIEANVYIPAYIRRYPFVLANDDTQDRLIVCIDRGSDLLSEQGQTPLFDAKGEPTEYTQNCIKFCDDFEVERRRTDSFVQILKDNDLFELKKATFQPTDEVGAPVGEPVTVAEYFGVSEEKLNGLSAEKLKELQENGALAQIYAHLVSLLGWDRLINKTMMKQAEAANLN | not soluble
MIDLKELKKYCNHSYLTIRNDKIIVGNKGLARLSKEKMRKIEMDFEIPVVYSRVFEEISERMGRYVSKNNIISPKDKILVGLSGGKDSLALLHLLEPYRRKYGVQIYAVTVDLNINGIRPWTESNKNVKMISEHCKNLNIPHEIIAHDGNVVEMSKILSENTKGIEYSPCFSCSMVRRHVLTNYAKNNFESDSNVKIAIGHTLEDNSDTIMANIFKGNVIKALEPIKNFNKTDVDFKDFKLNLKSCCMIRPMLNVSEEKIVKALVECDIEYYKDKDECPYSRHNGDGIRKKSHEVLKSLEEDVPNIREMIISSILNSIEQYKQK | not soluble
MSLRESCKKDLSAGESIRKTRRISVMRSASGNETFGVICRTLYGDFIQFSTKQIVVMSTLFRSLSMSSSAGDSNLFTGNSALKNDSVVAGKPEWAQNSRRRVIPSHLAPKKKTGFHLSSSVSTRKSGGDKKDVFQAENGGEFNLLSFGTNQKRLGTGSFDRVNANSSFFDTSFAGDLTRFDDAVNSSKTQDDFLVYTNDEDMPPSRSIYDLNDEVLISLKSLQNNNEDKTSDANDPKNFRNIFVRDAPKASPSEDSNDQAKQLSNGELAILVFGYPETMANQVIAYFQEFGTILEDFEVLRKPQAMTVGLQDKQFVPIFSGNSWTKITYDNPASAVDALLENGAVFNGVLLGVIPYTKDAVERLQKRKLTSSEDIGSGITTAAAEGHHHHHH | soluble
MTLISPELKTQGFYASSYKGTDLIGLTKHYFREKHMKQLMLTLGIVNTYDKIKVLDAHYRAIARAAPICHAFGFHLALYDFPFKMTAEELVAFVMEKTTIGESGSYLKILYEKNHLSVSDLPKKGFPSQFGETVITTSKPDPKRKVMPVKIAEEALHNRSFLFLVGLGHKGLPKELFERGKYHLDITSKGLSLETCTAIGAVPAHLAGLMENLRCKK | not soluble
MGSDKIHHHHHHMRIDLSLKPTPVQFLKRLSEKYGFNIYVKRDDLTELVGSGNKIRKLEYLLWEALKKGATTVFTCGGLQSNHARATAYVSRRYGLKPVLFLRKGEKVLNGNLLLDILLGAEIVEVSPEEYERIDEIFDVHKKMREKKGEKVYVIPEGGSNSLGAFGYFNAVLEMKDQLNLESFDAIVCAVGSGGTIAGLSAGISFLEYHVPVVGVNVTTKNSDYFVGKVKRIISGMEEYGLRVNETVFEVVDDYRGPGYAIPSSEDVEILKEVASIEGIILDPVYTAKAFRGMIEMFRNSEKNVLFIHTGGIFGLFAQSRRLV | not soluble
MSGTKASVFSTILQLMNSLAIRAVADNVRRLLEARRLSQKELAALSGVSQKSINDLLNYGGTVSKEPRLGTIEKLAKGFGIATWQLQIPGLPVDLLQGQMVSKVIENFRDAGTVGRENISRVAESEVRYSLVQNSERGAPR | not soluble
MSISSDWIVPDWPAPPSVRALSTTRQGGVSTGPYGLAGGLPGGLNLGRHVGDGPDAVTQNRRLLRAVLPAEPAWMEQVHGTVVADLDQPLPAPVVADAAIAASPGRVCVVMTADCLPVLLCDARGVTVGAAHAGWRGLCSGVIEQTVERMTDALRACGQEADPTWLAWLGPAIGPDCFEVGAEVRQAFIDAARPDELPATRAAFAEGAADGKFLADLYALARLRLARAGCRDVHGGGLCTMTDAERFYSYRRDRTTGRMATLIWRAA | soluble
MGATGSSQLEKEISTTESVNNANEHYYGLVNALFFCRPFREKVLNYKQTLKKSGASKDNLVTCLADLFHSIASQKRRVGTIAPKRFITKLKKENELFDNYMQQDAHEFFNYLINTISETLIQEKIAEREKASRHGTLKKGNVTVNLAPATAGLPRSDEKGTSERNGGITVEGNEFLNKSDTTTWIHEIFQGILTNETRCLSCETVSSKDEDFLDLSIDVEQNTSISHCLRVFSETETLCGDQKYFCETCSSKQEAQKRMRIKKPPQLLALHLKRFKFVEPLNRHTKLSYRVVFPLELRLFNVSDDAEYGDRMYDLVATVVHCGATPNRGHYITLVKSNSFWLVFDDDIVEKLEVSSMEEFSGMSTDANIQMPPGNQSAPQKEFRICLYSVLSGKRLRC | not soluble
MDHLKHLQQLQNIERIVLSGIVLANHKIEEVHSVLEPSDFYYPPNGLFFEIALKLHEEDCPIDENFIRQKMPKDKQIKEEDLVAIFAASPIDNIEAYVEEIKNASIKRKLFGLANTIREQALESAQKSSDILGAVEREVYALLNGSTIEGFRNIKEVLESAMDLITENQRKGSLEVTGIPTGFVQLDNYTSGFNKGSLVIIGARPSMGKTSLMMNMVLSALNDDRGVAVFSLEMSAEQLALRALSDLTSINMHDLESGRLDDDQWENLAKCFDHLSQKKLFFYDKSYVRIEQIRLQLRKLKSQHKELGIAFIDYLQLMSGSKATKERHEQIAEISRELKTLARELEIPIIALVQLNRSLENRDDKRPILSDIKDSGGIEQDADIVLFLYRGYIYQMRAEDNKIDKLKKEGKIEEAQELYLKVNEERRIHKQNGSIEEAEIIVAKNRNGATGTVYTRFNAPFTRYEDMPIDSHLEEGQETKVDYDIVTT | not soluble
MGSDKIHHHHHHMAKAKTQFICSNCGYTSARYLGRCPNCGQWNTLIEEKIVPEAVVNRKARISFDGRVAKPKKISEISGNELPRTRTGLRELNRVLGGGIVPGSLILIGGDPGIGKSTLMLQVSGQLAENGGSVLYVSGEESDNQIKLRADRLGVGSDSFIVYPETDMEQIKSIVQQIEPDYLVIDSVQTMQEPDLQSPIGSVAQIREVTANLMQIAKTNAITVFIVGHVTKDGSIAGPKILEHMVDTVLYFEGDANYKYRILRTVKNRFGSTNELGIFEMRDHGLREVANPSEIFLEERLAGATGSAITASMEGSRPILVEVQALVAPTVFGNAQRVTTGVDRNRVSQILAVLEKHANLLLQNQDAHVRITGGVKIDEPAADLAIALAVASSYHEKATNASDVFLGEVGLGGEVRSISLIEDRLKEIAKLGFKRAIVSKNNLAGIDLPKGLQVIGVSTLEEALKLGLDLNRASKQKGFADL | not soluble
MGSDKIHHHHHHMNIRILGCHGSQVPGCNTTSFLVEENVLIDAGSITSTLTAEEQVKVDYIFVTHAHLDHVKEMMFMVDNLWYLQKSNPLTIVSIEPVIHALKTHLFNGLIWPDFSSLPNAENPVLRYEILEVGGKRNIGSFAVTAISVNHTVETVSYVIETGQGSMIFIGDTGPTEEIWKVANSIEDLKAIFVETSLPDEMNHIAEMTGHLTPAMLMKELFKLNNKNLDIYLYHMKDFYSKLITRQVAAMNQNRLHILEDGQTVRI | not soluble
DEGYWDCSVCTFRNSAEAFKCMMCDVRKGTSTRKPRPVSQ | soluble
MGSDKIHHHHHHMRWFSLATAFLWGYYGFDNFGDELMFKACVNLLRELGFGTIYTPLPKGKKSMGVTSVDRYSIKLLSLLKKSQVSIAGGGGLFQDVTSLRSLLYYYSISKASLLMDKPLIFFGNSVGPLRRRLSKKLVWDVFKDKRTVFIARDPASYRYVKMVGGNAVLGTDPAIIHLMESDMEKKTEKKAVFFLKSPMDVSYILKSLRDQGINDFVISTAFPGDHSYLPPLRNGENLLEEIVSSSIVITERFHPALVAAYFEIPFIIVDCQKARRFFARYTKEDHFFSKRDPLEISLKVPVVLKKELKLKEKMKNDAIEMKEMLKGVLKGW | not soluble
GSKNCPDPELCRQSFRRFCYQEVSGPQEALSQLRQLCRQWLQPELHTKEQILELLVMEQFLTILPEEIQARVRHRCLMSSKEIVTLVEDFHRASKKPK | soluble
SHPDLNKLLELWPHIQEYQDLALKHGINDIFQDNGGKLLQVLLITGLTVLPGREGNDAVDNAGQEYELKSINIDLTKGFSTHHHMNPVIIAKYRQVPWIFAIYRGIAIEAIYRLEPKDLEFYYDKWERKWYSDGHKDINNPKIPVKYVMEHGTKIYGSGGSHPDLNKLLELWPHIQEYQDLALKHGINDIFQDNGGKLLQVLLITGLTVLPGREGNDAVDNAGQEYELKSINIDLTKGFSTHHHMNPVIIAKYRQVPWIFAIYRGIAIEAIYRLEPKDLEFYYDKWERKWYSDGHKDINNPKIPVKYVMEHGTKIYGSHHHHHH | soluble
YYHSVIVANLAETAAEKIGANPILARIGAYYHDIGKMKRPHFFTENIRDGKNPHEDITPSLSHLVLNEHVKYGVELARKYRLPLLVEFIIPQHHGTRSQKYFYYKAKQQFEDIPEEEFRYPGPKPQFKEAAIIMLADSVEA | soluble
MDVSYLLDSLNDKQREAVAAPRSNLLVLAGAGSGKTRVLVHRIAWLMSVENCSPYSIMAVTFTNKAAAEMRHRIGQLMGTSQGGMWVGTFHGLAHRLLRAHHMDANLPQDFQILDSEDQLRLLKRLIKAMNLDEKQWPPRQAMWYINSQKDEGLRPHHIQSYGNPVEQTWQKVYQAYQEACDRAGLVDFAELLLRAHELWLNKPHILQHYRERFTNILVDEFQDTNNIQYAWIRLLAGDTGKVMIVGDDDQSIYGWRGAQVENIQRFLNDFPGAETIRLEQNYRSTSNILSAANALIENNNGRLGKKLWTDGADGEPISLYCAFNELDEARFVVNRIKTWQDNGGALAECAILYRSNAQSRVLEEALLQASMPYRIYGGMRFFERQEIKDALSYLRLIVNRNDDAAFERVVNTPTRGIGDRTLDVVRQTSRDRQLTLWQACRELLQEKALAGRAASALQRFMELIDALAQETADMPLHVQTDRVIKDSGLRTMYEQEKGEKGQTRIENLEELVTATRQFSYNEEDEDLMPLQAFLSHAALEAGEGQADTWQDAVQLMTLHSAKGLEFPQVFIVGMEEGMFPSQMSLDEGGRLEEERRLAYVGVTRAMQKLTLTYAETRRLYGKEVYHRPSRFIGELPEECVEEVRLRATVSRPVSHQRMGTPMVENDSGYKLGQRVRHAK | soluble
MCSDVVAGDLNDLRIAALNLGKMSELYTNGAFVLGIAQGADTETYGRPHEWWSYVEQQLATALRFTYDRLNDGQEALLAAIDAYAYVDGDNAKGLTDVGKEYKEYISNPNNVGDEKYYDPPPLHTMVDAPDLGDKPEGWEEKYDG | not soluble
MSLVELQEIFDVSYGSKLDLNKMSSFNPTINFVGRSGKNNGVTASVDLLKNTKPYPAGLLTVALGGSVLSTFLQNKPFYTAQNVAVLNPKTEMTEQQKLFYCAAIFANAYRFSACGREANRTLRQLFVPSLDEIPSWVESVNLNPSAGVTEPKLKESLDLPVVRQSKRLDEIFTIQNGIAATKLKEFEQRQKDTVVYIRPASTQARTLRSYIARDSVDEKHIFPCHTLFTSTNGEGSHTYSYVSTCEFVANSDVAVLTPIQSDMPIEVKLYYAKCITANRYLFSYGRKPKGEKLKSIMLPYFDQQEDFDYICRFIHTLLFSNNLEGHHHHHH | soluble
